The values below come from US20220064331A1 (Genentech, published 2022).

Changes are numbered by the printed parent chain.

B1: 21H3 (antibody, V domains shown)
VH: QVQLQQPGAEIVKPGASVRLSCKASGYSFTSYWIHWVKQRPGQGLEWIGEIDPSVSNSNYNQKFKGKATLTADKSSSTAYMQLSGLTSEDSAVYFCVRLGVMVYGSSPFWFAYWGQGTLVTVSA
VL: DIVMTQSQKFMSTSVGDRVSITCKASQFVSDAVAWYQQKPGQSPKLLICSASYRYTGVPDRFTGSGSGTDFTFTISSVRTEDLAVYYCQQHYIVPYTFGGGTTLEIE
notes: murine hybridoma-derived anti-KLB antibody
B2: 46C3 (antibody, V domains shown)
VH: EVQLQQSGAELVKPGASVKLSCTASDFNIIDTYIHWVKQRPEQGLEWIGRIDPANGNTKYDPKFQDKAALTSDTDSNTAYLLFNSLTSEDTAVYYCARGTSYSWFAYWGQGTLVSVSA
VL: AVLMTQTPLSLPVSLGDQASISCRSSQNIVHSDGNTYLEWYLQKPGQSPKLLIYKVSNRFSGVPDRFSGSGSGRDFTLKISRVEAGDLGVYYCFQGSHVLTFGAGTRLELK
notes: as for B1
B3: 11F1 (antibody, V domains shown)
VH: EVQLVESGGGLVKPGGSLKLSCAPSGFTFSSYGISWVRQTPEKRLEWVATVSSGGRYTYYPDSVKGRFTISRDNAENTLYLQMSSLRSEDTAMYYCTRGGDGYALDYWGQGTSVTVSS
VL: DIQMTQTTSSLSASLGDRVTIICSASQVISNYLNWYQQKPDGTVKLLIYFTSSLRSGVPSRFSGSGSGTDYSLTISNLEPEDVATYFCQQYSKLPWTFGGGTKLELK
notes: as for B1
B4: 6C1 (antibody, V domains shown)
VH: QVQLQQSGDELMKPGASVKISCKVTGNTFSSYWIEWVKQRPGHGLEWIGEILPGSDSTKYVEKFKVKATFTADTSSNTAYMQLSSLTSEDSAVYYCARGGYHYPGWLVYWGQGTLVTVSA
VL: DIVMTQSQKFMSTSVGDRVSVTCKASQNVDSYVAWYQQKAGQSPKPLIYSASYRFSGVPDRFTGSGSGTEFTLTISNVQSEDLAEYFCQQYNISPYTFGGGTKLEIK
notes: murine hybridoma-derived anti-KLB antibody; also called KLBmAb4
B5: 11D4 (antibody, V domains shown)
VH: QVQVKESGPGLVAPSQSLSITCTVSGFSLTNYGVSWIRQPPGKGLEWLGVIWGDGSINYHSALISRLTITKDNSKSQVFLKLNSLEADDTATYYCAKTHDWFDYWGQGTLVTVSA
VL: DIQMTQTPSSLSASLGDRVTINCRASQDISNYFNWYQQKPNGTIKLLIYYTSRLQSGVPSRFSGSGSGTDYSLTISNLEQEDKATYFCHQVRTLPWTFGGGTKLEIK
notes: murine hybridoma-derived anti-KLB antibody; also called KLBmAb5
B6: 14C10 (antibody, V domains shown)
VH: QVTLKESGPGILQPSQTLSLTCSFSGFSLSTSAMGIGWIRQPSGKGLEWLAHIWWDDDKRYNPALKSRLTISKDTSRNQVFLKIASVDTADTATYFCARIDGIYDGSFYAMDYWGQGTSVTVSS
VL: DIVLTQSPASLAVSLGQRATISCRASESVDSYGNSFMHWYQQKPGQPPKLLIYRASNLESGIPARFSGSGSRTDFTLTINPVEADDVANYYCQQSNEDYTFGGGTKLEIK
notes: murine hybridoma-derived anti-KLB antibody; also called KLBmAb3
B7: 14E6 (antibody, V domains shown)
VH: EVPLQQSGPELVKPGATVKISCKPSGDTFTEYTMNWVRQSHGKSLEWIGGINPNNGETSYNQKFKGKATLTVDKSSSTAFMDLRILTSEDSAVYFCARKTTNYWGQGTTLIVSS
VL: DIQMTQSPSSLSASLGERVSLTCRASQEISGYLSWLQQKPDGTIKRLIYAASTLDSGVPRRFSGSRSGSDYSLTISSLESEDFADYYCLQYGSYPWTFGGGTKLELK
notes: as for B1

In one experiment the target is T1, rhesus monkey KLB (+N-ter FLAG) (rhesus monkey, UniProt Q86Z14 53-992 (human entry)).
T1 construct: expressed from KLB cDNA on HEK293T cells and read by FACS
T1 chain: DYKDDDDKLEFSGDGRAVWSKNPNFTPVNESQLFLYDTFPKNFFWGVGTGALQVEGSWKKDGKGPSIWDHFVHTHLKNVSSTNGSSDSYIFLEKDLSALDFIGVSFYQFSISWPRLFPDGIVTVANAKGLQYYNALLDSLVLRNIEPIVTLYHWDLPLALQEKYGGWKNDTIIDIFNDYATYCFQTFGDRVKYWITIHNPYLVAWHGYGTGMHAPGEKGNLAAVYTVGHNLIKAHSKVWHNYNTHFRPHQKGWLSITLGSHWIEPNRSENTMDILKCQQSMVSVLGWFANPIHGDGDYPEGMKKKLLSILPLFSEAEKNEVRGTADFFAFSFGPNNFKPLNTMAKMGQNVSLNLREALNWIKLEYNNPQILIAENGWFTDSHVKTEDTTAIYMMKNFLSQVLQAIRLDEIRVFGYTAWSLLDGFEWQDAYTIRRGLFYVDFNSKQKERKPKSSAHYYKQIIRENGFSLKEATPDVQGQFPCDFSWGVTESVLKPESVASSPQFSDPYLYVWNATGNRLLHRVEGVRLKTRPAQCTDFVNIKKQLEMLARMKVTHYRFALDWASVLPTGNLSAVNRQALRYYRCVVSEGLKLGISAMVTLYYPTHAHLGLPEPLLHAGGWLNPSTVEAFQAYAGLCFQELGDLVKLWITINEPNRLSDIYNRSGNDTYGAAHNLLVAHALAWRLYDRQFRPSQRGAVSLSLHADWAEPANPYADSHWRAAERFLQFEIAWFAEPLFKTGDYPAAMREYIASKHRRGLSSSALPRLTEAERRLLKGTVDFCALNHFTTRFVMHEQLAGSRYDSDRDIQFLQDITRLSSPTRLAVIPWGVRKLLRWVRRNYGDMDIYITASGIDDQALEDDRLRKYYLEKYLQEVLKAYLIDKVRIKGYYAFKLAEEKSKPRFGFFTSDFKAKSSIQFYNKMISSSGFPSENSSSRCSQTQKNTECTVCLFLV
As to the kind of experiment: FACS on transfected HEK293T cells. The procedure: (§1) Species cross reactivity of the disclosed anti-KLB antibodies were analyzed by FACS analysis using KLB cDNA from mouse, rat, rabbit, cynomolgus monkey and rhesus monkey cloned into pRK mammalian expression vectors transiently transfected into HEK293T cells. The KLB extracellular domain polypeptide sequences that were expressed are as follows: […]
B1: the binding result is “binds”.
For B2, the binding result was “no binding”.
On the same count and under the same terms, then B3, with “binds”; and B4, with “binds”; and B5, with “binds”.
With B6, the binding result is reported as “binds”.
Turning to B7, the binding result is listed as “binds”.

The target in the next experiment is T2, cynomolgus monkey KLB (+N-ter FLAG) (cynomolgus monkey, UniProt Q86Z14 53-991 (human entry)).
T2 construct: expressed from KLB cDNA on HEK293T cells and read by FACS; also called Cyno KLB
T2 chain: T1 chain with A135T, N290S, Q369R, V950A
Description: FACS on transfected HEK293T cells. The procedure:
as §1
As for B1, the binding result was “binds”.
Turning to B2, the binding result is listed as “no binding”.
Turning to B3, the binding result was “binds”.
On the same count and under the same terms, the same measure for B4: “binds”.
For the molecule B5, the binding result is “binds”.
The same measure, in the same setting: the same measure for B6: “binds”; for B7: “binds”.

A further experiment deals with T3, rat KLB (+N-ter FLAG) (rat, UniProt Q99N32 53-989 (mouse entry)).
T3 construct: expressed from KLB cDNA on HEK293T cells and read by FACS
T3 chain: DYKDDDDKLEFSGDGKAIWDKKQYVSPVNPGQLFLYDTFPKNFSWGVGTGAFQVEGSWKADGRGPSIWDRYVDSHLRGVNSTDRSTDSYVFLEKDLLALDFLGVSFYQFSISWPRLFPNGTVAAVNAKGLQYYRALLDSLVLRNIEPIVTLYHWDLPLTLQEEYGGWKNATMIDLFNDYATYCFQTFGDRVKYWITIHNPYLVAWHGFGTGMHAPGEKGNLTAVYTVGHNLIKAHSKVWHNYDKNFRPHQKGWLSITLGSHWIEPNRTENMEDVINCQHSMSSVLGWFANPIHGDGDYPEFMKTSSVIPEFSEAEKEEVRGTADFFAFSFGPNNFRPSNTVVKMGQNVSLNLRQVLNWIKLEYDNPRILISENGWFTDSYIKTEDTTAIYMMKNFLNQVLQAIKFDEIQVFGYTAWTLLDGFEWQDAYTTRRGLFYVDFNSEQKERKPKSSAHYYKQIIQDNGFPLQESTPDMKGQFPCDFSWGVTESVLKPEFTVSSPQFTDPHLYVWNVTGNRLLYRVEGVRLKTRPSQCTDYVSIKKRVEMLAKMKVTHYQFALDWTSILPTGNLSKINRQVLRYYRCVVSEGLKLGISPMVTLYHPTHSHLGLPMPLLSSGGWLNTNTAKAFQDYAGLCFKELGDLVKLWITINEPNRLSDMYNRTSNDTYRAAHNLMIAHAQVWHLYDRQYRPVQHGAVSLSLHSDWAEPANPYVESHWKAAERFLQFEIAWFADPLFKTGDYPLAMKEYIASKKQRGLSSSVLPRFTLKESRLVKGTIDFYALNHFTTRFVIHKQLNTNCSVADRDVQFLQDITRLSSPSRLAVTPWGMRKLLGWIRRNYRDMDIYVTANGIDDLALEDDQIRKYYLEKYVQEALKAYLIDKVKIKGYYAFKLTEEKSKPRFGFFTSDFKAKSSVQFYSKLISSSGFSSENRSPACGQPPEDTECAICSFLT
Description: FACS on transfected HEK293T cells. The procedure: as §1
Consider B1, for which the binding result is “no binding”.
B2: the binding result is given as “no binding”.
Take B3: the binding result is recorded as “no binding”.
B4: the binding result was “no binding”.
Regarding B5, the binding result was “no binding”.
Still for that read-out and setting: then B6, with “no binding”; and B7, with “binds”.
